The first assay deals with antiserum C2. Kind of assay: competition ELISA: peptide added to C2 on plate-bound hTNFα.
For LGGVFQLEKGDRLSA [hTNFα peptide H(120-134)], the OD450 with peptide is 1.77 and the inhibition rate (%) amounted to 10%.

Regarding SEGLYLIYSQVLFKG [hTNFα peptide H(52-66)], the OD450 with peptide came out at 1.35 and the inhibition rate (%) worked out at 21%.

ANGVELRDNQLVVPS [hTNFα peptide H(38-52)]: the OD450 with peptide stood at 1.42 and the inhibition rate (%) amounted to 19%.

In the case of AHVVANPQAEGQLQW [hTNFα peptide H(14-28)], the OD450 with peptide came to 1.65 and the inhibition rate (%) turned out to be 7%.

With GDRLSAEINRPDYLD [hTNFα peptide H(129-143)], the OD450 with peptide stood at 1.78 and the inhibition rate (%) was determined as 12%.

Turning to ISRIAVSYQTKVNLL [hTNFα peptide H(80-94)], the OD450 with peptide was found to be 1.7 and the inhibition rate (%) was found to be 12%.

Take QVLFKGQGCPSTHVL [hTNFα peptide H(61-75)]: the OD450 with peptide worked out at 1.73 and the inhibition rate (%) was 10%.

On to DKPVAHVVANPQAEG [hTNFα peptide H(10-24)], for which the OD450 with peptide is 1.74 and the inhibition rate (%) is 8%.

Regarding HVLLTHTISRIAVSY [hTNFα peptide H(73-87)], the OD450 with peptide was 1.79 and the inhibition rate (%) was -1%.

On to LQWLNRRANALLANG [hTNFα peptide H(26-40)], for which the OD450 with peptide worked out at 0.313 and the inhibition rate (%) was 82%.

Take QTKVNLLSAIKSPCQ [hTNFα peptide H(88-102)]: the OD450 with peptide is 1.78 and the inhibition rate (%) is 5%.

As for LSAIKSPCQRETPEG [hTNFα peptide H(94-108)], the OD450 with peptide is 1.79 and the inhibition rate (%) is 6%.

A further assay deals with antiserum B1. Kind of assay: competition ELISA: peptide added to B1 on plate-bound hTNFα. (ELISA stands for enzyme-linked immunosorbent assay.)
For VNLLSAIKSPCQRET [hTNFα peptide T(91-105)], the OD450 with peptide amounted to 1.17 and the inhibition rate (%) is 3%.

In the case of SDKPVAHVVANPQAE [hTNFα peptide T(9-23)], the OD450 with peptide turned out to be 1.06 and the inhibition rate (%) was 4%.

DRLSAEINRPDYLDF [hTNFα peptide T(130-144)]: the OD450 with peptide amounted to 1.11 and the inhibition rate (%) was 9%.

PIYLGGVFQLEKGDR [hTNFα peptide H(117-131)]: the OD450 with peptide stood at 1.2 and the inhibition rate (%) was 0%.

As to PCQRETPEGAEAKPW [hTNFα peptide T(100-114)], the OD450 with peptide is 1.06 and the inhibition rate (%) was 14%.

For NGVELRDNQLVVPSE [hTNFα peptide T(39-53)], the OD450 with peptide is 1.01 and the inhibition rate (%) was 23%.

As for LTHTISRIAVSYQTK [hTNFα peptide T(76-90)], the OD450 with peptide turned out to be 1.12 and the inhibition rate (%) is 13%.

Regarding GQLQWLNRRANALLA [hTNFα peptide T(24-38)], the OD450 with peptide was 0.103 and the inhibition rate (%) came out at 92%.

As to RRANALLANGVELRD [hTNFα peptide T(31-45)], the OD450 with peptide came out at 0.106 and the inhibition rate (%) was found to be 91%.

For VVANPQAEGQLQWLN [hTNFα peptide T(16-30)], the OD450 with peptide came to 1.06 and the inhibition rate (%) stood at 9%.

In the case of NQLVVPSEGLYLIYS [hTNFα peptide T(46-60)], the OD450 with peptide came out at 1.16 and the inhibition rate (%) amounted to 10%.

Turning to VRSSSRTPSDKPVAH [hTNFα peptide T(1-15)], the OD450 with peptide was 1.1 and the inhibition rate (%) came out at 13%.

Values taken from patent EP4624487A1.
